Data taken from patent US20040208887A1.

Key:
[1] = target: recombinant E1/E2 heterodimer protein (genotype 1a) (hepatitis C virus genotype 1a) (UniProt P26664); test: ELISA, E1/E2 heterodimer coated; control Fab
BSA (Sigma) = BSA (Sigma) (UniProt P02769); test: ELISA, BSA coated as negative control antigen; control Fab
[2] = target: recombinant soluble HCV E1 protein (hepatitis C virus); test: ELISA, recombinant E1 captured on GNA lectin; control Fab

Chain of recombinant E1/E2 heterodimer protein (genotype 1a) (hepatitis C virus genotype 1a) (P26664 192-383 limits assumed, chain 1 of 2): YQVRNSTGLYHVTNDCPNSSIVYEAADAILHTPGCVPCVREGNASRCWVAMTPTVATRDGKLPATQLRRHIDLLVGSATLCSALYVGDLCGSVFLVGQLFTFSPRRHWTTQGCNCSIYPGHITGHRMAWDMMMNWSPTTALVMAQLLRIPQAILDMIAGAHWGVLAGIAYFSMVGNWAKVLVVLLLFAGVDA
Chain of recombinant E1/E2 heterodimer protein (genotype 1a) (hepatitis C virus genotype 1a) (P26664 384-746 limits assumed, chain 2 of 2): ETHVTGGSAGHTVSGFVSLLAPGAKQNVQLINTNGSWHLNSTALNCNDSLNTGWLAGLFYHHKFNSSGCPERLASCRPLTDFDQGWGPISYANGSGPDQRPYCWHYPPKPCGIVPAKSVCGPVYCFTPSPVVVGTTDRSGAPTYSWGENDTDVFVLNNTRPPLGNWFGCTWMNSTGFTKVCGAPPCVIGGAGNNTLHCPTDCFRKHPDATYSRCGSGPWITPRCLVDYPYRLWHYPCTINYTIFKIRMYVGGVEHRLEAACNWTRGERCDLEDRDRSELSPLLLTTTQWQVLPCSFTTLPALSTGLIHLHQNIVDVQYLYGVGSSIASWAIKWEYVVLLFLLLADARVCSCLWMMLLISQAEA
Chain of BSA (Sigma) (P02769 25-607 limits assumed): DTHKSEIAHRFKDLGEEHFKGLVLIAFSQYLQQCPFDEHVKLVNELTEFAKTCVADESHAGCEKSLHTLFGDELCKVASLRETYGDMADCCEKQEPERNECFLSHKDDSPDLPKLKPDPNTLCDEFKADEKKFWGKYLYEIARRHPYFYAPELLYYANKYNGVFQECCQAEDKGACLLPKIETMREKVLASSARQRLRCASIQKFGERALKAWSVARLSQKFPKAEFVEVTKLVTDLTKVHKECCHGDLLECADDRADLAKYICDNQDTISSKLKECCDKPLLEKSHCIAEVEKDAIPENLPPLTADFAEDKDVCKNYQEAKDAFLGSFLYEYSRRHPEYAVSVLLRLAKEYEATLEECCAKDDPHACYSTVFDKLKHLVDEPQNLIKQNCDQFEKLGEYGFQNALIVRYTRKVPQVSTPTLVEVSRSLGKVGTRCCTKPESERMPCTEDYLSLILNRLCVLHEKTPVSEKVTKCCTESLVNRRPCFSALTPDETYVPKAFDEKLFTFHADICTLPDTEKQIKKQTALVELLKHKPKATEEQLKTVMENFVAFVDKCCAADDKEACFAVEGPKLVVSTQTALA

Substance: non-specific Fab
- OD405 nm [1]: 0.11 OD405 nm
- OD405 nm (BSA (Sigma)): 0.14 OD405 nm
- OD405 nm [2]: 0.2 OD405 nm
